Test results taken from patent US20150361176A1 (GlaxoSmithKline, published 2015).
Where a chain is given by its changes, count along the chain named. Numbers in names are those of the source. Where “and” joins values, the source holds several entries; their conditions need not be identical. Equal entries are not always repeated. Values belong to the binder of their own block, whether it stands above or below them.

How the values were obtained:
[1] = biological target: T1, recombinant human TGF-β RII/Fc chimera protein (human, UniProt P37173 24-159); test: SPR Biacore T100, human TGFbRII-FC, 1:1 model
T1 construct: range 24-159; Made in HEK-F cells; Biotinylated where it was put on SA chips, otherwise captured by anti-human IgG; also called human TGFbRII/Fc; hRII-Fc; not shown: Fc region of human IgG1
T1 sequence (P37173 24-159 limits assumed, stated change not applied): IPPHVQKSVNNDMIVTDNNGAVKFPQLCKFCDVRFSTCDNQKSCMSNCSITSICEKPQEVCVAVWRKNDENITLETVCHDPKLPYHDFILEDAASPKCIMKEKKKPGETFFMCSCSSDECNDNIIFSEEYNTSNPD
Protocol: Triplet or doped libraries in separate CDR1, CDR2 and CDR3 pools were subjected to rounds of phage selection as described above against either biotinylated human TGF-β RII/Fc antigen over 4 rounds in concentrations of 10 nM, 1 nM, 100 pM and 20 pM respectively, or two rounds of selection using 20 pM followed by 2 pM antigen. Inserts from phage selections were cloned into the pDOM10 expression vector and supernatants with off rates improved over parent were selected for further study. Domain antibodies were expressed and purified their affinity and bioactivity against human TGF-β RII/Fc antigen tested on the BIACORE™ T100 and in the Cell sensor assay described above (data not shown).
BIACORE™ analysis was carried out using a capture surface on a CM4 chip. Anti-human IgG was used as the capturing agent and coupled to a CM4 biosensor chip by primary amine coupling. The Antigen molecule fused to the human Fc was captured on this immobilised surface to a level from 250 to 300 resonance units and defined concentrations of Domain antibodies diluted in running buffer were passed over this captured surface. An injection of buffer over the captured antigen surface was used for double referencing. […] All runs were carried out at 25° C. using HBS-EP buffer as running buffer. Data were generated using the BIACORE™ T100 and fitted to the 1:1 binding model inherent to the software.

[2] = biological target: T1, recombinant human TGF-β RII/Fc chimera …; test: SPR Biacore, human TGFbRII-FC, 1:1 model (poor fit, ranking only)
[3] = biological target: T1, recombinant human TGF-β RII/Fc chimera …; test: SPR Biacore
[4] = biological target: T2, recombinant mouse TGF-β RII/Fc chimera protein (mouse; human, UniProt Q62312-1 24-184); test: SPR Biacore
T2 construct: Residue limits are printed only for the human receptor; also called mouse TGFbRII-Fc; mRII-Fc; not shown: Fc region; the assays speak of antigen fused to the human Fc
T2 sequence (looked up): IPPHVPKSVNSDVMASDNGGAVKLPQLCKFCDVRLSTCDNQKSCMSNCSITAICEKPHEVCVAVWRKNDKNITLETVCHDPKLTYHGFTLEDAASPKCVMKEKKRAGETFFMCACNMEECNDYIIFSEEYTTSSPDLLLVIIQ

[5] = biological target: T3, cynomolgus TGF-β RII/Fc (cynomolgus); test: SPR Biacore
T3 construct: extracellular domain; also called Cyno TGFBRII; Cyno TGFbRII

[6] = biological target: human TGF-βRII on cells (SBE-bla HEK 293T cells; A549 cells) (human, UniProt P37173 23-567); test: cell-based or functional assay
Sequence of human TGF-βRII on cells (SBE-bla HEK 293T cells; A549 cells) (P37173 23-567): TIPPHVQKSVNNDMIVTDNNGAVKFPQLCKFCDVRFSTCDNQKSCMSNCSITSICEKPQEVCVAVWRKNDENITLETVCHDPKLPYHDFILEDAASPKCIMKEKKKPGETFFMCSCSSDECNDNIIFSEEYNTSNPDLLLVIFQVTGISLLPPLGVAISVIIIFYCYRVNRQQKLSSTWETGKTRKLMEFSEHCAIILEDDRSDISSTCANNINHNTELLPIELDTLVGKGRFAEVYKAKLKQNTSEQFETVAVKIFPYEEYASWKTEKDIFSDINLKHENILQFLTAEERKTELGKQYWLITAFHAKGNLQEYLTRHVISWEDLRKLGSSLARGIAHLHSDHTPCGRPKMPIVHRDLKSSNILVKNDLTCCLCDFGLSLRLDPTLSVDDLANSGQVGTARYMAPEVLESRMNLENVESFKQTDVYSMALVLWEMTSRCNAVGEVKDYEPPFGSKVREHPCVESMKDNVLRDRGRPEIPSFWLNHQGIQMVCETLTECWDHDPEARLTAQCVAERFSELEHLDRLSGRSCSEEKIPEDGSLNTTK

[7] = biological target: T4, mouse TGF-βRII on MC3T3-E1 cells (mouse osteoblasts) (mouse, UniProt Q62312 24-567); test: cell-based or functional assay
T4 sequence (looked up): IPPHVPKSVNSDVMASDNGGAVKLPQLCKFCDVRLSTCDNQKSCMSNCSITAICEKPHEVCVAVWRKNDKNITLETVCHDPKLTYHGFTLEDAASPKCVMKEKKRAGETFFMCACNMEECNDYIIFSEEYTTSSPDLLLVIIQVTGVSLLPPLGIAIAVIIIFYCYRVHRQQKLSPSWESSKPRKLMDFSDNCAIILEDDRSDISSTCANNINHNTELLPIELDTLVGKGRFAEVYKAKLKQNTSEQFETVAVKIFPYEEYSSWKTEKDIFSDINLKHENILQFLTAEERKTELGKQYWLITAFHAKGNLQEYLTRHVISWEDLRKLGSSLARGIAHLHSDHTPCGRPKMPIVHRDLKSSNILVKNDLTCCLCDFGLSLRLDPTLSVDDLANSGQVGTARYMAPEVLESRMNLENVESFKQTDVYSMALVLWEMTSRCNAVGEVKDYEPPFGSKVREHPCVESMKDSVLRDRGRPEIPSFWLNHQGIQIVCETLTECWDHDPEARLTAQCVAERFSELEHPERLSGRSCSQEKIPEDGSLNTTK

Kd [1]: 13.8 nM and 18.4 nM | koff [1]: 0.0419 s⁻¹ and 0.0445 s⁻¹ | kon [1]: 3.04e+06 M⁻¹ s⁻¹ and 2.42e+06 M⁻¹ s⁻¹ | Kd [2]: 9.49 nM | koff [2]: 0.051 s⁻¹ | kon [2]: 5.37e+06 M⁻¹ s⁻¹
B1: DOM23h-271-7 (VHH)
VHH: EVQLLESGGGLVQPGGSLRLSCAASGFTFTEYRMWWVRQAPGKGLEWVSAIEPIGNRTYYADSVKGRFTISRDNSKNTLYLQMNSLRAEDTAVYYCAKQIPGRKWTANSRFDYWGQGTLVTVSS
notes: human VH dAb; also called 271-7a; 271-7b

Kd [3]: 0.0149 nM | Kd [4]: 1.78 nM | Kd [5]: 0.024 nM | Human Cell sensor IC50 [6]: 1.17 nM | Mouse 3T3 Luciferase assay IC50 [7]: 11100 nM
B2: DOM23h-271-39 (VHH)
VHH: B1 VHH with D62R, K65D, I100M, R103Q, T106M, N108K
notes: human VH dAb; also called DOM23h-271-22 plus D61R K64D; RD

Kd [3]: 0.00999 nM | Kd [4]: 0.548 nM | Kd [5]: 0.0112 nM | Human Cell sensor IC50 [6]: 0.53 nM | Mouse 3T3 Luciferase assay IC50 [7]: 1200 nM
B3: DOM23h-271-40 (VHH)
VHH: B1 VHH with D62R, K65F, I100M, R103Q, T106M, N108K
notes: human VH dAb; also called DOM23h-271-22 plus D61R K64F; RF
